Publication PMC3464605, “Thermodynamic analysis of DNA binding by a Bacillus single stranded DNA binding protein”
Where “and” joins values, the source holds several entries; their conditions need not be identical. Identical values can stand only once.

T1: SSB_BA (Bacillus anthracis, UniProt Q81JI3 1-172)
T1 sequence: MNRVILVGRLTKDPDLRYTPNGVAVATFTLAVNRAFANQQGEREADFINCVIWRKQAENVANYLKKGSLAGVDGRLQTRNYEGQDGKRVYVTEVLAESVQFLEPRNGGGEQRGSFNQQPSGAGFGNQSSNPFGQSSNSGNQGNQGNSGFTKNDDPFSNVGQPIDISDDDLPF


Key:
[1] = molecular target: T1, SSB_BA; assay: fluorescence anisotropy; […]) or 1 nM ([…]; FRET at 25 C; pH not given; conditions: protein: recombinant; tags: none stated (pET29b); label: 5'-fluorescein
[2] = molecular target: SSB_EC (Escherichia coli, UniProt P0AGE0 2-178); assay: FRET titration; 25 C, 40 nM DNA (200 nM in Results text); high FRET peak at 0.44 uM, (SSB)35 mode at >=1.1 uM; Anisotropy: buffer B (composition not in material), 25 mM KCl, 5 mM Mg2+, 25 C, 0.1 nM (Results) or 1 nM (Methods) Fl-(dT)20; temperature series 20-37 C with 25 mM NaCl and glycerol; salt series 0-200/250 mM NaCl at 25 C; FRET at 25 C; pH not given; conditions: chain copies: 4; label: 5'-Cy5; 3'-Cy3
Chain of SSB_EC (P0AGE0 2-178): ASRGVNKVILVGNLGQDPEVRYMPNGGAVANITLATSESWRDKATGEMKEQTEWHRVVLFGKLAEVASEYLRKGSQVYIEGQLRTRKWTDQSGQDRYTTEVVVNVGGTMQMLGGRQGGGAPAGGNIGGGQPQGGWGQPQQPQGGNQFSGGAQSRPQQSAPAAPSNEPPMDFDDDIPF

[3] = molecular target: T1, SSB_BA; assay: FRET titration; […]) or 1 nM ([…]; FRET at 25 C; pH not given; conditions: protein: recombinant; tags: none stated (pET29b); label: 5'-Cy5; 3'-Cy3

Binder	Kd [1]	binding result [2]	binding result [3]
TTTTTTTTTTTTTTTTTTTT (ssDNA) [Fl-(dT)20]	1 nM and 1.2 nM		
Cy5-(dT)70-Cy3 (ssDNA) DNA: TTTTTTTTTTTTTTTTTTTTTTTTTTTTTTTTTTTTTTTTTTTTTTTTTTTTTTTTTTTTTTTTTTTTTT		binds	binds
